Assay results taken from the supplement of paper PMC9170038.

Tested on: MS2 coat protein
Experiment: apparent KD of MS2 coat protein; designed switch direction (-1 OFF switch, 1 ON switch): -1; higher = weaker reporter binding
Procedure, shortened: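 The buffer was Tris-HCl pH 7.5 with KCl, MgCl2, BSA, DTT, tRNA and Tween-20. In it, SNAP-549-labelled MS2 coat protein was titrated in doubling steps from 0.7 or 1.5 nM to 3 µM over chip-bound RNA switches transcribed by stalled E. coli RNA polymerase on Illumina chips. Apparent KD is the per-design median over clusters of curve fits to normalised fluorescence.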

[1] = Eterna round: R95, input ligand: FMN 200 uM
[2] = Eterna round: R95, input ligand: microRNA oligo, concentration not stated
[3] = Eterna round: R95, input ligand: none
[4] = input ligand: microRNA oligo, concentration not stated

Sequence	apparent KD of MS2 coat protein (input ligand: FMN 200 uM)	apparent KD of MS2 coat protein (input ligand: none)	apparent KD of MS2 coat protein [1]	apparent KD of MS2 coat protein [2]	apparent KD of MS2 coat protein [3]	apparent KD of MS2 coat protein [4]
UACUGGACAGGAUAUGUUCUUGAGCACUUGAGGAUCACCCAAGUCAUCAAGAACUCAGGCACAGAAGGGUUUAUGG [salish99_ex5_r4_006] (Eterna round: R97, puzzle: Exclusion 5)	0.0255 µM	0.0148 µM	–	–	–	–
AAGAAACGAGGAUAUACAAUUAAGUGAGAGAGGGAAAUGUGACAUGAGGAUCACCCAUGUAGAAGGCGUAAGAG [JR_Exclu2_Sub084] (puzzle: Exclusion 2)	–	–	0.0662 µM	0.0442 µM	0.0535 µM	–
UGCUACAUGAGGAUCACCCAUGUAAUGUGGGAAUCGUUAGGACAGGAUAUGAUUGUAUUGUUUUUUCAGAAGGGUCAUUACUUU [JR_ExcNG3_Sub012] (Eterna round: R96, puzzle: Exclusion NG 3)	–	–	–	–	–	0.212 µM
UGUAUUAUAGGAUAUCACAACCUGGACAUGAGGAUCACCCAUGUGGUUGCAUGCUGUCGAUGAGAAGGAUAGGGCG [Eternabot (L1) Solution 43] (Eterna round: R97, puzzle: Exclusion 5)	0.0228 µM	0.0219 µM	–	–	–	–
CCGAUGUCAGGAUAUAGCGGUCGCUGCCACGGUGGAGUCUGCUAGAAGGGACAUGAGGAUCACCCAUGUCGAAC [Eternabot (Original) Solution 49] (Eterna round: R97, puzzle: Exclusion 4)	0.0577 µM	0.0234 µM	–	–	–	–
GAUCGCCGUGUCAGGAUAUCUUGUGUACCCACGUUAGAGAAGGGACAUGAGGAUCACCCAUGUACCCUGGUUCU [Brourd's mod of Exclusion 4 (MOD3 of Nando's BmEX4 C.21)] (Eterna round: R97, puzzle: Brourd's mod of Exclusion 4)	0.0187 µM	0.0178 µM	–	–	–	–
UACAUACGUCGAUCGAAAGACAUGAGGAUCACCCAUGUACGAUGUCAACGUCAAAUCCAAGUAUUUUGCUCUCGUCA [Eternabot (L2) Solution 32] (Eterna round: R97, puzzle: Sensor, turn-off variant 1)	0.0156 µM	0.0161 µM	–	–	–	–
UUUUUAUAACAAGGAUAUACUAAACAUGAGGAUCACCCAUGUAAUAUUAUGAGUGAGAGAGAGAAGUAGAAGGUGUAUUAUUUU [JMF solution 2] (Eterna round: R96, puzzle: Exclusion NG 2)	–	–	–	–	–	0.0824 µM
CUCCAGCAAGGAUAUACAUAGUGACGUCUGUUUAAUCUUAAACAUGAGGAUCACCCAUGUAGAAGGUGCGUCAC [Biqugeza] (Eterna round: R97, puzzle: Exclusion 2)	0.0194 µM	0.0171 µM	–	–	–	–
GGCACACAUGUAGGAUAUCUGCACGAUUAGUGCAGAGAAGGACAUGAGGAUCACCCAUGUAAUUAAGAUCAAUUAUUAAGUGCC [ENG1/3-A1] (Eterna round: R96, puzzle: Exclusion NG 1)	0.468 µM	0.0546 µM	–	–	–	0.05 µM
CCGGAAAUACAGGAUAUAGGAGUCGAUAGACUCCUAGAAGGGUAUACAUGAGGAUCACCCAUGUGUCCUACCGG [Fiskers Ex 6 - 70] (puzzle: Exclusion 6)	–	–	–	0.0228 µM	–	–
CGUCAACAUGAGGAUCACCCAUGUUAGGAUAUGGCGGUCCAUGGUUGGGACUAGACCGCCAGAAGGAGCAUGCG [Eternabot (L1) Solution 54] (Eterna round: R97, puzzle: Exclusion 1)	0.0719 µM	0.0868 µM	–	–	–	–
AGGUCACAUGAGGAUCACCCAUGUCAGGAUAUCGUCACUGGAGCUUCGGCUCCAGUGACGAGAAGGGACAAUUA [E1/6-A1] (Eterna round: R97, puzzle: Exclusion 1)	0.499 µM	0.0805 µM	–	–	–	–
GGCAAAGUAGGAUAUACAUGAGGAUCACCCAUGUUUCCAGAUGGCGUAGGUCUUCUUUGUAGAAGGGCUAUGCC [Ananinge] (Eterna round: R97, puzzle: Exclusion 3)	0.0201 µM	0.0152 µM	–	–	–	–
GAGAAUUUAUAGGAUAUCGUAUGGAUAAUUUAACGAGAAGGAUGAACAUGAGGAUCACCCAUGUGGUAUCAUGG [JL-ex6-3.14] (puzzle: Exclusion 6)	–	–	0.27 µM	0.28 µM	0.247 µM	–
ACCUGGUGAGGAUAUGUUGGGAAUGAUCCUUUCGGAUUGACACAGAAGGCACAUGAGGAUCACCCAUGUGGGUG [Eternabot (L1) Solution 70] (Eterna round: R97, puzzle: Exclusion 4)	0.332 µM	0.591 µM	–	–	–	–
UAUUUACAUGAGGAUCACCCAUGUCAGGAUAUGUUUCUAUCGUCGAAAGACGAUAGUUGCAGAAGGGACAAUAU [LRO-Excl01-25 mod derived from EliFisker 4.24] (Eterna round: R97, puzzle: Exclusion 1)	0.0941 µM	0.0485 µM	–	–	–	–
CCUACUUACUAGGAUAUCAGAGUCGAAAGACUCUGAGAAGGAGUAACAUGAGGAUCACCCAUGUGUCCUAUAGG [Mod of Eli 11 - Jieux - Exclusion 6] (Eterna round: R97, puzzle: Exclusion 6)	0.0522 µM	0.0242 µM	–	–	–	–
AGCAGACGAGGAUAUGAUAAUUAAUACAUGAGGAUCACCCAUGUAAUACUGAUCCAUGGAUCAGAAGGCGUCUGCU [E5/4-A1] (Eterna round: R97, puzzle: Exclusion 5)	0.0271 µM	0.0176 µM	–	–	–	–
AGCGUCUGAGGAUAUGCAUCUUAUCAGUCCGUGCGUAAGCGACAUGAGGAUCACCCAUGUAGAAGGUAGAUGCG [Eternabot (L1) Solution 10] (Eterna round: R97, puzzle: Exclusion 2)	0.0196 µM	0.0176 µM	–	–	–	–
GGACACUGAGGAUAUACAAUUCAGGUCCUCCUGUAGAGUAUACAUGAGGAUCACCCAUGUAGAAGGCAGACCAA [Aronberiat] (Eterna round: R97, puzzle: Exclusion 2)	0.344 µM	0.0449 µM	–	–	–	–
GAUUAGUGAGGAUAUGGUAAAGAUAAGAUGAUGAAAGAACUCCAGAAGGCACAUGAGGAUCACCCAUGUAGUAG [Mat - Exclusion 4 - Mod of JL - D21] (puzzle: Exclusion 4)	–	–	0.0171 µM	0.0204 µM	0.0201 µM	–
ACUUAUAGAGGAUAUACAGAAUAUUACAUGAGGAUCACCCAUGUUCUUCAAUGUAUAUAUGUAGAAGGCUAAGGAA [JL-ex5-4.22 Malcolm mod] (Eterna round: R97, puzzle: Exclusion 5)	0.252 µM	0.0888 µM	–	–	–	–
UACAUGAGGAUCACCCAUGUUUUGUCGUGUAUGGUAUUUAUCUAGGAUAUCAUUUUAUUAAGUUAUGAGAAGGAGAAUAUUAAU [JMF's solution 90] (Eterna round: R96, puzzle: Exclusion NG 3)	0.0348 µM	0.0323 µM	–	–	–	0.0249 µM
ACAUGAGGAUCACCCAUGUACAGGGUUUAGUUUCAUCGUUUGAAGGAUAUACACCGUUAGUUGUCGUAGAAGGUCACAGAUUGG [JR_ExcNG3_Sub009] (Eterna round: R96, puzzle: Exclusion NG 3)	0.153 µM	0.155 µM	–	–	–	0.0682 µM
